{
  "source": "FireProtDB (doi:10.1002/prot.340080106)",
  "proteins": {"B1": {"name": "Protein S100-G wild type, P02633 (protein)", "chain": "MSAKKSPEELKGIFEKYAAKEGDPNQLSKEELKLLLQTEFPSLLKGPSTLDELFEELDKNGDGEVSFEEFQVLVKKISQ"}},
  "conditions": "Bos taurus; pH 7; 25 °C; Urea; CD; PIPES-KOH 20 mM; reversible: yes; whole UniProt chain shown",
  "data": [
    {"protein": "B1", "values": [
      {"measurement": "denaturant midpoint (higher = more stable)", "result": 5.3, "unit": "M"},
      {"measurement": "unfolding free energy", "result": 1.21, "unit": "kJ/mol"}
    ]}
  ]
}
